According to publication PMC10686484, “Cas9 is mostly orthogonal to human systems of DNA break sensing and repair”:

B1: sgRNA (pLK1) + dsDNA1/2* (mixed)
RNA: GGAUAACUCAAUUUGUAAAAAAGUUUUAGAGCUAGAAAUAGCAAGUUAAAAUAAGGCUAGUCCGUUAUCAACUUGAAAAAGUGGCACCGAGUCGGUGCUUUU
DNA 1: CTGATAACTCAATTTGTAAAAAATGGTACTGAGCA
DNA 2: TGCTCAGTACCATTTTTTACAAATTGAGTTATCAG
B2: dsDNA1/2* (dsDNA)
DNA 1: B1 DNA 1
DNA 2: B1 DNA 2

Columns and labels:
Cas9 = Cas9 (Streptococcus pyogenes, UniProt Q99ZW2 1-1368); assay: EMSA; preformed 1 complex with sgRNA, no Mg2+; reported as apparent Kd (EC50); EMSA: 50 mM Tris-HCl pH 7.5, 100 mM NaCl, 1 mM DTT, 0.1 mg/ml BSA (oligo dsDNA only), 10 mM MgCl2 if indicated (always for plasmid), 4 C, 30 min; 10 nM dsDNA or 10 ng/ul plasmid; settings: protein: recombinant; label: 5'-32P on DNA2 (target strand); guide + blunt 35 bp duplex
Ku antigen (Ku70/80) = Ku antigen (Ku70/80) (human, UniProt P12956;P13010 2-609;2-732); assay: EMSA; EMSA: 50 mM Tris-HCl pH 7.5, 100 mM NaCl, 1 mM DTT, 0.1 mg/ml BSA (oligo dsDNA only), 10 mM MgCl2 if indicated (always for plasmid), 4 C, 30 min; 10 nM dsDNA or 10 ng/ul plasmid; settings: protein: native; copies: 1;1; label: 5'-32P on DNA2 (target strand); blunt 35 bp
RPA [1] = target: T1, RPA (human, UniProt P27694;P15927;P35244 1-616;1-270;1-121); assay: EMSA; no Mg2+; reported as Kd; EMSA: 50 mM Tris-HCl pH 7.5, 100 mM NaCl, 1 mM DTT, 0.1 mg/ml BSA (oligo dsDNA only), 10 mM MgCl2 if indicated (always for plasmid), 4 C, 30 min; 10 nM dsDNA or 10 ng/ul plasmid; settings: protein: recombinant; copies: 1;1;1; label: 5'-32P on DNA2 (target strand); blunt 35 bp
RPA [2] = target: T1, RPA; assay: EMSA; 10 mM Mg2+; reported as Kd; EMSA: 50 mM Tris-HCl pH 7.5, 100 mM NaCl, 1 mM DTT, 0.1 mg/ml BSA (oligo dsDNA only), 10 mM MgCl2 if indicated (always for plasmid), 4 C, 30 min; 10 nM dsDNA or 10 ng/ul plasmid; settings: protein: recombinant; copies: 1;1;1; label: 5'-32P on DNA2 (target strand); blunt 35 bp
YB1 (1-219) = YB1 (1-219) (human, UniProt P67809 1-219); assay: EMSA; 10 mM Mg2+; several complexes; EMSA: 50 mM Tris-HCl pH 7.5, 100 mM NaCl, 1 mM DTT, 0.1 mg/ml BSA (oligo dsDNA only), 10 mM MgCl2 if indicated (always for plasmid), 4 C, 30 min; 10 nM dsDNA or 10 ng/ul plasmid; settings: protein: recombinant; label: 5'-32P on DNA2 (target strand); blunt 35 bp
PARP2 = PARP2 (murine, UniProt O88554 1-559); assay: EMSA; no NAD+, no Mg2+; apparent Kd (EC50), from loss of free DNA; EMSA: 50 mM Tris-HCl pH 7.5, 100 mM NaCl, 1 mM DTT, 0.1 mg/ml BSA (oligo dsDNA only), 10 mM MgCl2 if indicated (always for plasmid), 4 C, 30 min; 10 nM dsDNA or 10 ng/ul plasmid; settings: protein: recombinant; label: 5'-32P on DNA2 (target strand); blunt 35 bp
PARP1 = PARP1 (human, UniProt P09874 1-1014); assay: as above; settings: protein: recombinant; label: 5'-32P on DNA2 (target strand); blunt 35 bp
Chain of PARP1 (P09874 whole entry): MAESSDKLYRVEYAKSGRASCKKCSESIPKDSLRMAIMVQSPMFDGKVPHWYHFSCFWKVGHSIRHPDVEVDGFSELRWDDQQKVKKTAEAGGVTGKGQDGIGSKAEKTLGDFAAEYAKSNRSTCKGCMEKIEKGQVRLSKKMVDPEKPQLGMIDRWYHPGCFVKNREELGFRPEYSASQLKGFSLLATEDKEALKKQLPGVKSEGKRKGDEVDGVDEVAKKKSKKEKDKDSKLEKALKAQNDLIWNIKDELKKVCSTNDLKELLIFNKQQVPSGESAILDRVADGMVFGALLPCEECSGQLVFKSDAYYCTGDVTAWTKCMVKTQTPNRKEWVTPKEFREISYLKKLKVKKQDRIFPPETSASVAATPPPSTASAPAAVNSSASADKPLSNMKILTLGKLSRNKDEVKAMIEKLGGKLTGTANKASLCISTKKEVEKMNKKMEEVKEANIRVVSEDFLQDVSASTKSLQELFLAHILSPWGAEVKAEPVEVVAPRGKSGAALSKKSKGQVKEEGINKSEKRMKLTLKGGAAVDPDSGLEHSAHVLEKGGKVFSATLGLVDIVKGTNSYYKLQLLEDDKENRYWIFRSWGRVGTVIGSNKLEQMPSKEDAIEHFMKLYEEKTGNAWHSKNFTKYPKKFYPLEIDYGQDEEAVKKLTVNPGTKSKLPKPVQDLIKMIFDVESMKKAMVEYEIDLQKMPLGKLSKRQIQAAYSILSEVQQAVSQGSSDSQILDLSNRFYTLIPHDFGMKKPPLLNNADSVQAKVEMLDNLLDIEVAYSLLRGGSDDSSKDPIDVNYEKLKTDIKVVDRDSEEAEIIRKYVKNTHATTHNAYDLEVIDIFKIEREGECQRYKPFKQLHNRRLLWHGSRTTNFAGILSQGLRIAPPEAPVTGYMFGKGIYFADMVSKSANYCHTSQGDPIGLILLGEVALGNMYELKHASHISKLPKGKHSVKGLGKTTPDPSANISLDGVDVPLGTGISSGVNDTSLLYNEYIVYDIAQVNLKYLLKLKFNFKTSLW

T1 sequence (P27694 whole entry, chain 1 of 3): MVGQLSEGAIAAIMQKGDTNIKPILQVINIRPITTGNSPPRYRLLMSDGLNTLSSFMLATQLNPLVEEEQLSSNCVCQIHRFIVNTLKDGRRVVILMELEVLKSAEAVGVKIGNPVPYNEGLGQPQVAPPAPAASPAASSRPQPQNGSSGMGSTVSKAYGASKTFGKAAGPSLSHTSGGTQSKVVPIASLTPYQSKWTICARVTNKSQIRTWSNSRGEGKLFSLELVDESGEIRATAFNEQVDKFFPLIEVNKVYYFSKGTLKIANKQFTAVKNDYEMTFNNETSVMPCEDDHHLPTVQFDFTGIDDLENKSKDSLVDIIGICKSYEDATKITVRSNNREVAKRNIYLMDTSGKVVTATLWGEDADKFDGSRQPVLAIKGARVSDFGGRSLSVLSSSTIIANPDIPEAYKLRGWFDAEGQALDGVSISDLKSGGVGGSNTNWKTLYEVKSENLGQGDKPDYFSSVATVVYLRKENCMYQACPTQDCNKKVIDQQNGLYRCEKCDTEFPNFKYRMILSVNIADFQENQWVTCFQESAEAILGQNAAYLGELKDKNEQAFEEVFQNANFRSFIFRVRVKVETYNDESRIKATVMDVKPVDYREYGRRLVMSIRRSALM
T1 sequence (P15927 whole entry, chain 2 of 3): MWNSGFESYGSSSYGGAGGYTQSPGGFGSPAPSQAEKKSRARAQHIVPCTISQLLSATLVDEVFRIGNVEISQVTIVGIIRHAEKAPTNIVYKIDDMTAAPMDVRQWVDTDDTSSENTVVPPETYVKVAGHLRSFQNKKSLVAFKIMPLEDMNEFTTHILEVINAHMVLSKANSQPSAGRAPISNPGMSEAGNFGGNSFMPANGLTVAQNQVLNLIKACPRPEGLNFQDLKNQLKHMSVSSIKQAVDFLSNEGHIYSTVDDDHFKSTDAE
T1 sequence (P35244 whole entry, chain 3 of 3): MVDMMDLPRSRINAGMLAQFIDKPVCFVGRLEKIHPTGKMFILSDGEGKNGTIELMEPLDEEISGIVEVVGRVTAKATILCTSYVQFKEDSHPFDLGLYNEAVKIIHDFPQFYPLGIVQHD
Chain of Ku antigen (Ku70/80) (P12956 2-609, chain 1 of 2): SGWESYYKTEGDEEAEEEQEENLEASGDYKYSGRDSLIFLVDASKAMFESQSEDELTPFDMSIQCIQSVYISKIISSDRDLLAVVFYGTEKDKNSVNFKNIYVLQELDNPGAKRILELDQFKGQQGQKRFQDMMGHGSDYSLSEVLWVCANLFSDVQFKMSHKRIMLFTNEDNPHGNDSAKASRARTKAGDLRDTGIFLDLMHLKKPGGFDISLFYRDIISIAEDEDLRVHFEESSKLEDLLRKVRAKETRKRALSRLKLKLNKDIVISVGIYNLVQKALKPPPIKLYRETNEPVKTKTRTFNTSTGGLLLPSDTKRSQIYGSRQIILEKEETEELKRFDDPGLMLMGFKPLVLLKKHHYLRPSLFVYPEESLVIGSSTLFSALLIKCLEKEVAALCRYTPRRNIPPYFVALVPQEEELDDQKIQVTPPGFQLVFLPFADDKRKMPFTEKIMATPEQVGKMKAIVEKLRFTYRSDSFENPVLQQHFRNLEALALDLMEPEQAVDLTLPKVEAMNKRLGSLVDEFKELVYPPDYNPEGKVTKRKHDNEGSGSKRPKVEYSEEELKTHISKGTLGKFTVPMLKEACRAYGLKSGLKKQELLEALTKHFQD
Chain of Ku antigen (Ku70/80) (P13010 2-732, chain 2 of 2): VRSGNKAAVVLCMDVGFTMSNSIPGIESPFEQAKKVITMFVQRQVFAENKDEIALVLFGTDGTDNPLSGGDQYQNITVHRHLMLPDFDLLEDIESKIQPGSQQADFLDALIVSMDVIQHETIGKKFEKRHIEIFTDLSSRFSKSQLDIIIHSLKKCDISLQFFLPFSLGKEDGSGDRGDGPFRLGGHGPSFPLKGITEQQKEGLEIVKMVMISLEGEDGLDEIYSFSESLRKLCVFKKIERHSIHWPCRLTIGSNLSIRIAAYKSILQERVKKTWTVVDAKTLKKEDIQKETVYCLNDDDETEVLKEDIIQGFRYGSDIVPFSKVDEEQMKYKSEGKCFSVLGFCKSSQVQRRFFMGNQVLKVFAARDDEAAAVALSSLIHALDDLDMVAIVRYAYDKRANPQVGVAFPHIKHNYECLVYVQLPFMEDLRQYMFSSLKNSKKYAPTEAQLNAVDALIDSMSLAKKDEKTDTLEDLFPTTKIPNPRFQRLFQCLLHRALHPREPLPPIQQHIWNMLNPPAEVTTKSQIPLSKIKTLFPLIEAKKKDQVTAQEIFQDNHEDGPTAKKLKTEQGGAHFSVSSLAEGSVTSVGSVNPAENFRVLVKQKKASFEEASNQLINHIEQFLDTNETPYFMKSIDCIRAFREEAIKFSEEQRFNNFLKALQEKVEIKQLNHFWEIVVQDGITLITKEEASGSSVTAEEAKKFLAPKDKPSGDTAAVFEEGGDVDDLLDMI
Chain of YB1 (1-219) (P67809 1-219): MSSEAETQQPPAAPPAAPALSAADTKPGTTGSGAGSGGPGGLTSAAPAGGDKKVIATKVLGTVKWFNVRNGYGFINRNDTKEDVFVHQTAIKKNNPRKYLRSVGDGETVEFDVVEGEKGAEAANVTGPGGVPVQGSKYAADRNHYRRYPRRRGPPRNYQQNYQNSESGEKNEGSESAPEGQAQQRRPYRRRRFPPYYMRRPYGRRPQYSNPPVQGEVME
Chain of Cas9 (Q99ZW2 whole entry): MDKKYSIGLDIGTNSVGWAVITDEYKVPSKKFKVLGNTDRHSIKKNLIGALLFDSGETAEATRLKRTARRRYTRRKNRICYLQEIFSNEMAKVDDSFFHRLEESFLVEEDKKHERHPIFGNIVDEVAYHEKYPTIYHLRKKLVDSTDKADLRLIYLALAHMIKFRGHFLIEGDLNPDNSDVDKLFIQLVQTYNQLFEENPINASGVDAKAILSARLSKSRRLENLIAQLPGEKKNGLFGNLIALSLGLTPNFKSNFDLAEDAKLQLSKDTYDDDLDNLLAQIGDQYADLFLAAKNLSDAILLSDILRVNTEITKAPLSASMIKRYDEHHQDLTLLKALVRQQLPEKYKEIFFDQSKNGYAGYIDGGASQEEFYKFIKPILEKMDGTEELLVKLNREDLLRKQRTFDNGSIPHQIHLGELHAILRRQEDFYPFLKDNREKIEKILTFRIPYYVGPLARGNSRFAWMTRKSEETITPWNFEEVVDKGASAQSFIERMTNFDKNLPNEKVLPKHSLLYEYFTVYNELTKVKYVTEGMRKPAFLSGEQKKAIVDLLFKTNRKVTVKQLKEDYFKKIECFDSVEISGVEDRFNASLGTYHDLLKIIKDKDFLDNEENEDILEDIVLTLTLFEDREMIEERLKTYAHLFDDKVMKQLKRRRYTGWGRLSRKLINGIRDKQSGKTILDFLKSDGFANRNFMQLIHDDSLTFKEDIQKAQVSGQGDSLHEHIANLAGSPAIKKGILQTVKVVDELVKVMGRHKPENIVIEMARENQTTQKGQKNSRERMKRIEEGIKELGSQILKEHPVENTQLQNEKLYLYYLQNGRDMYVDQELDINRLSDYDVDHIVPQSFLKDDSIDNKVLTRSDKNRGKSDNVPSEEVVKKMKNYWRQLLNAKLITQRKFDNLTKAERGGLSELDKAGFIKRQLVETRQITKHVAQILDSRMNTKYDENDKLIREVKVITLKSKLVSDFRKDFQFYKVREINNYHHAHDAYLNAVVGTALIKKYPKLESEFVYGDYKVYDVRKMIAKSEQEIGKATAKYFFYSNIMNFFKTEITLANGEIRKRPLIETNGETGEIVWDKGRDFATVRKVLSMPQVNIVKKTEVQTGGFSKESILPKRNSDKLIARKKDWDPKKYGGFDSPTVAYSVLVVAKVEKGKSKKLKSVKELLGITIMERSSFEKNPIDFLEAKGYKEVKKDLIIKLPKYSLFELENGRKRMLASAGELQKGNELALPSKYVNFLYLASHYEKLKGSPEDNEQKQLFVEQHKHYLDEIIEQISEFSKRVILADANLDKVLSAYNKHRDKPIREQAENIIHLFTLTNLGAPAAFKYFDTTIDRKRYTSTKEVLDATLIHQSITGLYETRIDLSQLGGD

| Binder | apparent K (half saturation) (Cas9) | binding result (Ku antigen (Ku70/80)) | apparent K (half saturation) (RPA [1]) | apparent K (half saturation) (RPA [2]) | binding result (YB1 (1-219)) | apparent K (half saturation) (PARP2) | apparent K (half saturation) (PARP1) |
| --- | --- | --- | --- | --- | --- | --- | --- |
| B1 | 7.7 ± 0.4 nM |  |  |  |  |  |  |
| B2 |  | binds | 90 ± 20 nM | 125 ± 40 nM | binds | 200 ± 16 nM | 53 ± 5 nM |
